According to paper PMC7406630, “A new ^68Ga-labeled somatostatin analog containing two iodo-amino acids for dual somatostatin receptor subtype 2 and 5 targeting” (EJNMMI Research, 2020):
Where two headings read alike, the source gives them in different places. One block for each molecule: values may come before it.

What was measured:
SST5 [1] = tested on: SST5; parameters: method as in PMID 10774879; conditions: cited from earlier work
SST2 = tested on: SST2; parameters: method as in PMID 10774879; conditions: cited from earlier work
human SST5 [2] = target: T1, human SST5 (Homo sapiens, UniProt P35346); test: Competition binding assay on HEK-SST5 cells with ^125I-labeled SS-14; conditions: read-out: SST5 IC50, nM (95% CI), ^125I-SS-14 radioligand, 3 to 5 sessions in duplicate
T1 construct: expressed in transfected cells; host or cells: HEK293 (HEK-SST5)
Description: (§1) Human Embryonic Kidney (HEK293) cells (a kind gift from Dr. A. Mühlethaler-Mottet, Pediatric Hematology-Oncology Unit, Lausanne University Hospital, Switzerland) were stably transfected with plasmids encoding the human SST2 and SST5 (HEK-SST2 and HEK-SST5) and cultivated as previously described. Non-transfected HEK cells were used as a negative control.
(§2) Binding assays were performed as described previously.

human SST2 [3] = target: T2, human SST2 (Homo sapiens, UniProt P30874); test: cAMP accumulation experiments on HEK-SST2 cells (agonistic potency); assay type: cell-based; conditions: for EC50: read-out: SST2 EC50, nM (95% CI), cAMP, HEK-SST2 cells, 3 to 4 sessions in duplicate
T2 construct: expressed in transfected cells; host or cells: HEK293 (HEK-SST2)
Description: (§3) Human Embryonic Kidney (HEK293) cells (a kind gift from Dr. A. Mühlethaler-Mottet, Pediatric Hematology-Oncology Unit, Lausanne University Hospital, Switzerland) were stably transfected with plasmids encoding the human SST2 and SST5 (HEK-SST2 and HEK-SST5) and cultivated as previously described [25]. Non-transfected HEK cells were used as a negative control.
(§4) cAMP accumulation experiments on HEK-SST2 and HEK-SST5 cells were performed with cAMP direct immunoassay kit (colorimetric, K371, BioVision) as described previously [25].

human SST2 [4] = target: T2, human SST2; test: Competition binding assay on HEK-SST2 cells with ^125I-labeled SS-14; conditions: read-out: SST2 IC50, nM (95% CI), ^125I-SS-14 radioligand, 3 to 5 sessions in duplicate
Description: as §1, §2

human SST5 [5] = target: T1, human SST5; test: cAMP accumulation experiments on HEK-SST5 cells (agonistic potency); assay type: cell-based; conditions: read-out: SST5 EC50, nM (95% CI), 3 to 4 sessions in duplicate
Description: as §3, §4

human SST5 [6] = target: T1, human SST5; parameters: method as in PMID 29523357; conditions: read-out: SST5 IC50, nM (95% CI); HEK-SST5 cells, ^125I-SS-14 radioligand; published earlier but measured head-to-head; cited from earlier work
human SST5 [7] = target: T1, human SST5; parameters: method as in PMID 29523357; conditions: read-out: SST5 EC50, nM (95% CI); cAMP, HEK-SST5 cells; cited from earlier work
human SST2 [8] = target: T2, human SST2; parameters: method as in PMID 29523357; conditions: read-out: SST2 IC50, nM (95% CI); HEK-SST2 cells, ^125I-SS-14 radioligand; published earlier but measured head-to-head; cited from earlier work
human SST2 [9] = target: T2, human SST2; parameters: method as in PMID 29523357; conditions: read-out: SST2 EC50, nM (95% CI); cAMP, HEK-SST2 cells; cited from earlier work
SST5 [10] = tested on: SST5; parameters: method as in PMID 25918675; conditions: cited from earlier work
[11] = in vivo; cited from earlier work
[12] = assay type: physicochemical; conditions: pH 7.4
Description: To a pre-saturated mixture of 500 μL n-octanol and 500 μL of phosphate-buffered saline (PBS) at pH 7.4, 10 μL of 1 μM of ^67Ga-labeled conjugates was added. The solutions were vortexed for 1 h to reach equilibrium and then centrifuged (3000 rpm) for 10 min. From each phase, 100 μL was removed and measured in a γ-counter. The partition coefficient was calculated as the average of the logarithmic values (n = 3) of the ratio between the radioactivity in the organic and the PBS phase.

in vivo [13] = conditions: female, mouse, 100 pmol, total radioactivity
in vivo [14] = conditions: female, mouse, 100 pmol, total radioactivity; remark: listed apart in the source
[15] = athymic Nude-Foxn1^nu/Foxn1^+, Intestine uptake
[16] = athymic Nude-Foxn1^nu/Foxn1^+, Liver uptake
[17] = athymic Nude-Foxn1nu/Foxn1+, Pancreas uptake
[18] = athymic Nude-Foxn1^nu/Foxn1^+, Adrenal uptake
[19] = athymic Nude-Foxn1^nu/Foxn1^+, Blood uptake
[20] = athymic Nude-Foxn1^nu/Foxn1^+, Femur uptake
[21] = athymic Nude-Foxn1^nu/Foxn1^+, Heart uptake
[22] = athymic Nude-Foxn1^nu/Foxn1^+, Kidney uptake
[23] = athymic Nude-Foxn1^nu/Foxn1^+, Lung uptake
[24] = athymic Nude-Foxn1^nu/Foxn1^+, Muscle uptake
[25] = athymic Nude-Foxn1^nu/Foxn1^+, Pancreas uptake
[26] = athymic Nude-Foxn1^nu/Foxn1^+, Pituitary uptake
[27] = athymic Nude-Foxn1^nu/Foxn1^+, SST2 tumor uptake
[28] = athymic Nude-Foxn1^nu/Foxn1^+, SST5 tumor uptake
[29] = athymic Nude-Foxn1^nu/Foxn1^+, Stomach uptake
[30] = athymic Nude-Foxn1nu/Foxn1+, Spleen uptake

T1 sequence (P35346 whole entry): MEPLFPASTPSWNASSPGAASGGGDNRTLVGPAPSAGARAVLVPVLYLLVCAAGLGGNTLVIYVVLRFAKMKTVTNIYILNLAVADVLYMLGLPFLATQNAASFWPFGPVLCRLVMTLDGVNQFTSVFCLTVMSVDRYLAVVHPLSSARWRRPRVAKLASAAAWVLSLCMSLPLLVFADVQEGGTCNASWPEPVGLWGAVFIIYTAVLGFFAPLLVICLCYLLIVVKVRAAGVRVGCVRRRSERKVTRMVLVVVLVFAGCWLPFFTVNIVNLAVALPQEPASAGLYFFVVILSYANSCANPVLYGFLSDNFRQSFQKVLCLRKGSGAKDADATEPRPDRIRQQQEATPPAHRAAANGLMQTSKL
T2 sequence (P30874 whole entry): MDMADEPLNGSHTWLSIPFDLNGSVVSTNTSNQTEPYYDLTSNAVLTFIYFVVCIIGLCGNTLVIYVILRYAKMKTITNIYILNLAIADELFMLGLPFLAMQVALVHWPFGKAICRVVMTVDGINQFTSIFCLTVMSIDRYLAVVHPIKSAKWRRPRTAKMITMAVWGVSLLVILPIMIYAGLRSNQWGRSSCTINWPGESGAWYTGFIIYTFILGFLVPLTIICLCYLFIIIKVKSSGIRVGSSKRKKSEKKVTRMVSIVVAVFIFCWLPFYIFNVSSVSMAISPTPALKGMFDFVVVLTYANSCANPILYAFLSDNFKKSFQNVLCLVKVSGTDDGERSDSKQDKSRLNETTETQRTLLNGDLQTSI

Molecule: [^68Ga][Ga-1,4,7,10-tetraazacyclododecane-1,4,7,10-tetraacetic acid^0,Tyr^3]-octreotide [[^68Ga]Ga-DOTA-TOC]
IC50 (SST5 [1]): 73 ± 21 nM
IC50 (SST2): 2.5 ± 0.5 nM

IC50 (human SST5 [2]): 3.4 nM
EC50 (human SST2 [3]): 0.59 nM
IC50 (human SST2 [4]): 0.7 nM
EC50 (human SST5 [5]): 3.3 nM
Molecule: C[C@@H](O)[C@@H]1NC(=O)[C@H](CCCCN)NC(=O)[C@@H](Cc2c[nH]c3ccccc23)NC(=O)[C@H](Cc2cccc3ccccc23)NC(=O)[C@@H](NC(=O)[C@@H](Cc2ccccc2)NC(=O)CN2CCN(CC(=O)O)CCN(CC(=O)O)CCN(CC(=O)O)CC2)CSSC[C@@H](C(=O)N[C@H](CO)[C@@H](C)O)NC1=O [^natGa-DOTA-NOC, metal not drawn, reference compound]

Molecule: Pasireotide
IC50 (human SST5 [6]): 0.2 nM
EC50 (human SST5 [7]): 0.6 nM
IC50 (human SST2 [8]): 3.1 nM
EC50 (human SST2 [9]): 1.1 nM

EC50 (human SST5 [5]): 39 nM
Molecule: C[C@@H](O)[C@H](NC(=O)[C@@H]1CSSC[C@H](NC(=O)[C@@H](Cc2ccccc2)NC(=O)CN2CCN(CC(=O)O)CCN(CC(=O)O)CCN(CC(=O)O)CC2)C(=O)N[C@@H](Cc2ccc(O)cc2)C(=O)N[C@H](Cc2c[nH]c3ccccc23)C(=O)N[C@@H](CCCCN)C(=O)N[C@@H]([C@@H](C)O)C(=O)N1)C(=O)O [^natGa-DOTA-TATE, metal not drawn]
IC50 (SST5 [10]): > 1000 nM

Molecule: [^68Ga][Ga-DOTA^0,Tyr^3,Thr^8]-octreotate [[^68Ga]Ga-DOTA-TATE]
IC50 (SST2): 0.2 ± 0.04 nM
Blood values [11]: 0.4 ± 0.0 %IA/g
Liver uptake [11]: 0.4 ± 0.2 %IA/g

Molecule: CC(C)[C@@H]1NC(=O)[C@H](CCCCN)NC(=O)[C@@H](Cc2c[nH]c3ccccc23)NC(=O)[C@H](Cc2ccc(O)c(I)c2)NC(=O)[C@@H](NC(=O)[C@@H](Cc2ccc(N)c(I)c2)NC(=O)CN2CCN(CC(=O)O)CCN(CC(=O)O)CCN(CC(=O)O)CC2)CSSC[C@@H](C(=O)N[C@H](C(N)=O)[C@@H](C)O)NC1=O [[^67Ga]Ga-DOTA-ST8950, metal not drawn]
log D [12]: − 1.0 ± 0.1

Factor of reduction of agonistic potency for SST2 vs ST8950 (human SST2 [3]; after ^natGa-DOTA conjugation): 1.6
EC50 (human SST2 [3]): 0.46 nM
IC50 (human SST2 [4]): 0.32 nM
Molecule: CC(C)[C@@H]1NC(=O)[C@H](CCCCN)NC(=O)[C@@H](Cc2c[nH]c3ccccc23)NC(=O)[C@H](Cc2ccc(O)c(I)c2)NC(=O)[C@@H](NC(=O)[C@@H](Cc2ccc(N)c(I)c2)NC(=O)CN2CCN(CC(=O)O)CCN(CC(=O)O)CCN(CC(=O)O)CC2)CSSC[C@@H](C(=O)N[C@H](C(N)=O)[C@@H](C)O)NC1=O [^natGa-DOTA-ST8950, metal not drawn]

Molecule: C[C@@H](O)[C@H](NC(=O)[C@@H]1CSSC[C@H](NC(=O)[C@@H](Cc2ccccc2)NC(=O)CN2CCN(CC(=O)O)CCN(CC(=O)O)CCN(CC(=O)O)CC2)C(=O)N[C@@H](Cc2ccc(O)cc2)C(=O)N[C@H](Cc2c[nH]c3ccccc23)C(=O)N[C@@H](CCCCN)C(=O)N[C@@H]([C@@H](C)O)C(=O)N1)C(=O)O [[^67Ga]Ga-DOTA-TATE, metal not drawn]
log D [12]: − 3.0 ± 0.1

Molecule: CC(C)[C@@H]1NC(=O)[C@H](CCCCN)NC(=O)[C@@H](Cc2c[nH]c3ccccc23)NC(=O)[C@H](Cc2ccc(O)c(I)c2)NC(=O)[C@@H](NC(=O)[C@@H](Cc2ccc(N)c(I)c2)NC(=O)CN2CCN(CC(=O)O)CCN(CC(=O)O)CCN(CC(=O)O)CC2)CSSC[C@@H](C(=O)N[C@H](C(N)=O)[C@@H](C)O)NC1=O [[^68Ga]Ga-DOTA-ST8950, metal not drawn]
tissue uptake at 1 h (in vivo [13]; [15]): 2.5 ± 0.2 %ID/g
tissue uptake at 1 h (in vivo [13]; [16]): 6.2 ± 0.6 %ID/g
tissue uptake at 1 h (in vivo [13]; athymic Nude-Foxn1^nu/Foxn1^+, SST(-) tumor uptake): 1.4 ± 0.5 %ID/g
tissue uptake at 1 h (in vivo [13]; [17]): 7.4 ± 1.9 %ID/g
tissue uptake at 2 h (in vivo [14]; [18]): 4.3 ± 1 %ID/g
tissue uptake at 2 h (in vivo [14]; [19]): 0.8 ± 0.2 %ID/g
tissue uptake at 2 h (in vivo [14]; [20]): 2.4 ± 0.8 %ID/g
tissue uptake at 2 h (in vivo [14]; [21]): 0.8 ± 0.2 %ID/g
tissue uptake at 1 h (in vivo [14]; [15]): 2.4 ± 1.3 %ID/g
tissue uptake at 2 h (in vivo [14]; [15]): 2.7 ± 0.3 %ID/g
tissue uptake at 2 h (in vivo [14]; [22]): 14 ± 2 %ID/g
tissue uptake at 1 h (in vivo [14]; [16]): 6.4 ± 1.9 %ID/g
tissue uptake at 2 h (in vivo [14]; [16]): 7.3 ± 1.5 %ID/g
tissue uptake at 2 h (in vivo [14]; [23]): 3.5 ± 0.7 %ID/g
tissue uptake at 2 h (in vivo [14]; [24]): 0.6 ± 0.1 %ID/g
tissue uptake at 1 h (in vivo [14]; [25]): 8.5 ± 4.5 %ID/g
tissue uptake at 1 h (in vivo [14]; [26]): 8.5 ± 1.9 %ID/g
tissue uptake at 2 h (in vivo [14]; [26]): 7.8 ± 1.2 %ID/g
tissue uptake at 1 h (in vivo [14]; [27]): 26 ± 8 %ID/g
tissue uptake at 2 h (in vivo [14]; [27]): 32 ± 7 %ID/g
tissue uptake at 1 h (in vivo [14]; [28]): 15 ± 6 %ID/g
tissue uptake at 2 h (in vivo [14]; [28]): 14 ± 3 %ID/g
tissue uptake at 2 h (in vivo [14]; [29]): 8.4 ± 1.2 %ID/g
tissue uptake at 2 h (in vivo [14]; [17]): 8.6 ± 2.1 %ID/g
tissue uptake at 2 h (in vivo [14]; [30]): 1.5 ± 0.3 %ID/g

EC50 (human SST2 [3]): 9.8 nM
IC50 (human SST2 [4]): 7.5 nM
Molecule: CC(C)[C@@H]1NC(=O)[C@H](CCCCN)NC(=O)[C@@H](Cc2c[nH]c3ccccc23)NC(=O)[C@H](Cc2ccc(O)cc2)NC(=O)[C@@H](NC(=O)[C@@H](Cc2ccc(N)cc2)NC(=O)CN2CCN(CC(=O)O)CCN(CC(=O)O)CCN(CC(=O)O)CC2)CSSC[C@@H](C(=O)N[C@H](C(N)=O)[C@@H](C)O)NC1=O [^natGa-DOTA-ST8951, metal not drawn]

Molecule: C[C@@H](O)[C@@H]1NC(=O)[C@H](CCCCN)NC(=O)[C@@H](Cc2c[nH]c3ccccc23)NC(=O)[C@H](Cc2cccc3ccccc23)NC(=O)[C@@H](NC(=O)[C@@H](Cc2ccccc2)NC(=O)CN2CCN(CC(=O)O)CCN(CC(=O)O)CCN(CC(=O)O)CC2)CSSC[C@@H](C(=O)N[C@H](CO)[C@@H](C)O)NC1=O [[^68Ga]Ga-DOTA-NOC, [^68Ga][Ga-DOTA^0,1-Nal^3]-octreotide, metal not drawn, reference compound]
tissue uptake at 1 h (in vivo [14]; [18]): 4.6 ± 1 %ID/g
tissue uptake at 1 h (in vivo [14]; [19]): 1.1 ± 0.4 %ID/g
tissue uptake at 1 h (in vivo [14]; [20]): 1.7 ± 0.8 %ID/g
tissue uptake at 1 h (in vivo [14]; [21]): 0.7 ± 0.2 %ID/g
tissue uptake at 1 h (in vivo [14]; [15]): 3.3 ± 0.7 %ID/g
tissue uptake at 1 h (in vivo [14]; [22]): 9.8 ± 3.2 %ID/g
tissue uptake at 1 h (in vivo [14]; [23]): 3.3 ± 1.4 %ID/g
tissue uptake at 1 h (in vivo [14]; [24]): 0.5 ± 0.2 %ID/g
tissue uptake at 1 h (in vivo [14]; [25]): 16 ± 3 %ID/g
tissue uptake at 1 h (in vivo [14]; [26]): 8.2 ± 2.8 %ID/g
tissue uptake at 1 h (in vivo [14]; [27]): 30 ± 8 %ID/g
tissue uptake at 1 h (in vivo [14]; [28]): 12 ± 5 %ID/g
tissue uptake at 1 h (in vivo [14]; [29]): 12 ± 2 %ID/g
tissue uptake at 1 h (in vivo [14]; [30]): 0.8 ± 0.2 %ID/g

Molecule: C[C@@H](O)[C@@H]1NC(=O)[C@H](CCCCN)NC(=O)[C@@H](Cc2c[nH]c3ccccc23)NC(=O)[C@H](Cc2cccc3ccccc23)NC(=O)[C@@H](NC(=O)[C@@H](Cc2ccccc2)NC(=O)CN2CCN(CC(=O)O)CCN(CC(=O)O)CCN(CC(=O)O)CC2)CSSC[C@@H](C(=O)N[C@H](CO)[C@@H](C)O)NC1=O [[^67Ga]Ga-DOTA-NOC, metal not drawn]
log D [12]: − 1.6 ± 0.1
